This is an account of results in patent US20210088528A1 (published 2021).

Experiment [1] concerns the target T1, human PD-L1-His6 (human, UniProt Q9NZQ7 19-238).
T1 construct: extracellular domain; also called hPD-L1; B7-H1; not shown: His6 tag (by the name PD-L1-His6)
The experiment is described as follows: BLI (Octet RED96), PD-1-Fc on AHC biosensor, PD-L1-His6 in solution. As for the experimental part: (§1) BLI was performed on an Octet RED96® system at 30° C. in a buffer of 150 mM NaCl, 20 mM HEPES:NaOH pH 7.4, 0.1% BSA and 0.05% Tween 20. The human PD-1-Fc proteins were loaded onto anti-human IgG Fc capture (AHC) biosensors, associated in defined concentrations of human PD-L2-His6 or PD-L1-His6 proteins, and then dissociated in buffer.
(§2) Using bio-layer interferometry (BLI), the binding of PD-L2 to wild-type PD-1 and the variants was compared (data not shown). The binding of sensor-loaded PD-1 and the loop variants to 190 nM PD-L2 and 1.1 μM PD-L1 was measured using biolayer interferometry. Corresponding PD-1-Fc proteins were loaded on anti-human IgG Fc capture (AHC) biosensors. Association was monitored for 2 min and dissociation for 2 min. Fitting of binding curves was performed in Graphpad Prism 8 software using built-in equations of “Receptor binding—kinetics” models. Means and standard deviations were calculated from 3-4 independent experiments. […] Fitting of binding curves was performed in Graphpad Prism 8 using built-in equations of “Receptor binding—kinetics” models. Means and standard deviations were calculated from 3-4 independent experiments. […] Kinetic measurements of binding of the ligands by PD-1 with BLI also permitted the determination of association constants (kₒₙ).
In general terms: In BLI a coated tip is dipped into the sample, and binding shifts an interference pattern.

Experiment [2] concerns the target T2, human PD-L2-His6 (human, UniProt Q9BQ51 20-220).
T2 construct: extracellular domain; also called hPD-L2; B7-DC; not shown: His6 tag (by the name PD-L2-His6)
T2 sequence (looked up): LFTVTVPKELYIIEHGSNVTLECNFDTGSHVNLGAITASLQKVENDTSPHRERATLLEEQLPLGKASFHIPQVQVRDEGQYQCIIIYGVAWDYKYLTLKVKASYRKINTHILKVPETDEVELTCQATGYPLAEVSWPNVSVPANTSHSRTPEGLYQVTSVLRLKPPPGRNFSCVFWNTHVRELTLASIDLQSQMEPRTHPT
The experiment can be described thus: BLI, PD-1-Fc on AHC biosensor. As to the method:
as §1, §2

For experiment [3], the target named is T1, human PD-L1-His6. The experiment can be described thus: BLI, PD-1-Fc on AHC biosensor. As for the experimental part: as §1, §2
Experiment [4] deals with T2, human PD-L2-His6. The experiment can be described thus: BLI (Octet RED96), PD-1-Fc on AHC biosensor, PD-L2-His6 in solution. As to the method:
as §1, §2

T1 sequence (Q9NZQ7 19-238): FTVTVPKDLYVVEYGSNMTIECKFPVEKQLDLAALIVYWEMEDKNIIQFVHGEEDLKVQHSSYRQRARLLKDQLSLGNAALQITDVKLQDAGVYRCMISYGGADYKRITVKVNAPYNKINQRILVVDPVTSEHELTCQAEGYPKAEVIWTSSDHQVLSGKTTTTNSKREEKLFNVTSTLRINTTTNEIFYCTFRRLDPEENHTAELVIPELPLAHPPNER

B1: human PD-1-Fc N74G T76P A132V (Fc fusion)
chain: PGWFLDSPDRPWNPPTFSPALLVVTEGDNATFTCSFSNTSESFVLNWYRMSPSGQPDKLAAFPEDRSQPGQDCRFRVTQLPNGRDFHMSVVRARRNDSGTYLCGAISLAPKVQIKESLRAELRVTERRAE
notes: also called PD-1 triple mutant; triple-mutant; not shown: Fc portion
The Kd is a measure of binding affinity in units of concentration. Read a low Kd as higher affinity. Broadly, the koff is the rate constant with which the complex falls apart. Higher therefore signals a short-lived complex. One may read the kon as a measure of how fast the partners come together. As to B1, in the experiment with human PD-L1-His6 [1], the affinity, expressed as Kd, was 72 nM; the koff amounted to 0.036 s⁻¹; the kon was 520000 M⁻¹ s⁻¹. Also, in the experiment with human PD-L2-His6 [2], the “fold increase in binding affinity against wild-type PD-1” value is roughly 200 fold and the “fold increase of kon against wild-type PD-1” value turned out to be 3 fold. In addition, the “fold increase of kon against wild-type PD-1” value in the experiment with human PD-L1-His6 [3] is 14 fold. In the experiment with human PD-L2-His6 [4], this molecule displayed a dissociation constant Kd of 2.6 nM, an off-rate constant (koff) of 0.0014 s⁻¹ and an association rate constant (kon) of 580000 M⁻¹ s⁻¹.
